Results on 22 molecules are retold here after patent publication US20220056104A1 (Janssen / Centocor, published 2022).

T1: Recombinant DR3-Fc (R&D Systems, cat. #943-D3) (UniProt Q93038 25-199, limits assumed)
T1 construct: dimeric MW~92 kDa; also called DR3 receptor; Fc-DR3; not shown: Fc part of the bought fusion
T1 sequence (looked up): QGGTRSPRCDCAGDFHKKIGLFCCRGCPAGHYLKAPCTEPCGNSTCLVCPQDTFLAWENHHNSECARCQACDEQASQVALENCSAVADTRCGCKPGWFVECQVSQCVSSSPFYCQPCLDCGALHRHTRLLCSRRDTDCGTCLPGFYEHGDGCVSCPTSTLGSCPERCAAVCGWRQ

T2: DcR3 (UniProt O95407 30-300, limits assumed)
T2 construct: the construct is not described; also called decoy receptor DcR3; TNFRSF6B
T2 sequence (looked up): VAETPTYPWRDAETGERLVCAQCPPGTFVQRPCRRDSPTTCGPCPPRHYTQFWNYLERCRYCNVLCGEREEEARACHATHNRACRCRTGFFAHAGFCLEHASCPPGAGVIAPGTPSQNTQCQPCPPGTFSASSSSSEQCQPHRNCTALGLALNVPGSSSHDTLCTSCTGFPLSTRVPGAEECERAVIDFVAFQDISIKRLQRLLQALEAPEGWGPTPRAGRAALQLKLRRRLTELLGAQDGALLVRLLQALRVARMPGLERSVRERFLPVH

B1: TL1W34 (C162S, C202S) (ligand)
chain: HHHHHHENLYFQGLKGQEFAPSHQQVYAPLRADGDKPRAHLTVVRQTPTQHFKNQFPALHWEHELGLAFTKNRMNYTNKFLLIPESGDYFIYSQVTFRGMTSESSEIRQAGRPNKPDSITVVITKVTDSYPEPTQLLMGTKSVSEVGSNWFQPIYLGAMFSLQEGDKLMVNVSDISLVDYTKEDKTFFGAFLL
notes: also called TL1A-C162S, C202S; C162S, C202S TL1A variant
B2: TL1W125 (His-TEV-TL1A N207E) (ligand)
chain: B1 chain with S104C, S144C, N149E
notes: also called TL1W125 (N207E)
B3: TL1W120 (His-TEV-TL1A S206K) (ligand)
chain: B1 chain with S104C, S144C, S148K
notes: also called TL1W120 (S206K)
B4: TL1W136 (His-TEV-TL1A K240F) (ligand)
chain: B1 chain with S104C, S144C, K182F
notes: also called TL1W136 (K240F)
B5: TL1W131 (His-TEV-TL1A Y238E) (ligand)
chain: B1 chain with S104C, S144C, Y180E
notes: also called TL1W131 (Y238E)
B6: TL1W38 (His-TEV-TL1A L123K) (ligand)
chain: B1 chain with L65K, S104C, S144C
notes: also called TL1W38 (L123K)
B7: TL1W95 (His-TEV-TL1A Q167A) (ligand)
chain: B1 chain with S104C, Q109A, S144C
notes: also called TL1W95 (Q167A)
B8: TL1W132 (His-TEV-TL1A T239A) (ligand)
chain: B1 chain with S104C, S144C, T181A
notes: also called TL1W132 (T239A)
B9: TL1W121 (His-TEV-TL1A S206E) (ligand)
chain: B1 chain with S104C, S144C, S148E
notes: also called TL1W121 (S206E)
B10: TL1W129 (His-TEV-TL1A Y238K) (ligand)
chain: B1 chain with S104C, S144C, Y180K
notes: also called TL1W129 (Y238K)
B11: TL1W127 (His-TEV-TL1A Y238A) (ligand)
chain: B1 chain with S104C, S144C, Y180A
notes: also called TL1W127 (Y238A)
B12: TL1W122 (His-TEV-TL1A N207F) (ligand)
chain: B1 chain with S104C, S144C, N149F
notes: also called TL1W122 (N207F)
B13: TL1W118 (His-TEV-TL1A S206A) (ligand)
chain: B1 chain with S104C, S144C, S148A
notes: also called TL1W118 (S206A)
B14: TL1W123 (His-TEV-TL1A N207S) (ligand)
chain: B1 chain with S104C, S144C, N149S
notes: also called TL1W123 (N207S)
B15: TL1W80 (His-TEV-TL1A K111A) (ligand)
chain: B1 chain with K53A, S104C, S144C
notes: also called TL1W80 (K111A)
B16: TL1W119 (His-TEV-TL1A S206F) (ligand)
chain: B1 chain with S104C, S144C, S148F
notes: also called TL1W119 (S206F)
B17: TL1W124 (His-TEV-TL1A N207K) (ligand)
chain: B1 chain with S104C, S144C, N149K
notes: also called TL1W124 (N207K)
B18: TL1W109 (His-TEV-TL1A S187L) (ligand)
chain: B1 chain with S104C, S129L, S144C
notes: also called TL1W109 (S187L)
B19: TL1W137 (His-TEV-TL1A K240S) (ligand)
chain: B1 chain with S104C, S144C, K182S
notes: also called TL1W137 (K240S)
B20: TL1W126 (His-TEV-TL1A F209W) (ligand)
chain: B1 chain with S104C, S144C, F151W
notes: also called TL1W126 (F209W)
B21: TL1W92 (His-TEV-TL1A M158Y) (ligand)
chain: B1 chain with M100Y, S104C, S144C
notes: also called TL1W92 (M158Y)
B22: TL1W45 (His-TEV-TL1A E190F) (ligand)
chain: B1 chain with S104C, E132F, S144C
notes: also called TL1W45 (E190F)

Positions count from the first letter of the chain named. Names and notes keep the numbering of the source.

Usually EC50 stands for the midpoint of the concentration-response curve.

The first assay deals with T1, Recombinant DR3-Fc (R&D Systems, cat. …). The assay is described as follows: ELISA (FIG. 4C). As to the method: (§1) All ELISA-based measurements were collected in triplicate, and error values report the standard error between measurements. Recombinant DR3-Fc (R&D Systems, cat. #943-D3), dimeric MW˜92 kDa, was non-specifically immobilized onto plates (Nunc maxisorp, cat. #436110) in 100 μL DR3-Fc, diluted to 10 μg/mL onto a 96-well White Maxisorp plate (Nunc, cat #436110) (O/N, 4° C.). Plates were block for 1 hour at room temperature with 250 μl/well of casein buffer and blocking buffer was removed. 50 μL of TL1A variants were diluted in StartingBlock PBS (Thermo Fisher Scientific), at 25 μg/mL, diluting 3× over each well, according to the plate map description for 20160623) per well on a 96-well White Maxisorp plate (Nunc, cat #: 436110) (overnight at 4° C.).
Plates were washed three times with TBST. 100 μl/well polyclonal rabbit anti-human TL1A-biotin antibody (diluted 1:1000 in Starting Block PBS) was added and plates were incubated for 1 hour at room temperature with shaking at 150 rpm. TL1A-biotin antibody was removed and 100 μl/well streptavidin-HRP conjugate (diluted 1:10,000 in Starting Block PBS) was added to plates. […] 100 μl/well POD Chemiluminescence substrate (Roche, cat #: 11582950001) was added immediately prior to reading plate luminescence using a Molecular Devices M5 plate reader with a delay setting of 100 ms.
For orientation: An ELISA detects its analyte on a solid surface through an enzyme-linked reagent.
With B1, the binding result is listed as “no binding”.

The target of the next assay is T2, DcR3. Description: ELISA, DcR3.
As to B2, the EC50 was 9.8 nM and the “Rel EC50” value is 2.1 ratio (head: nM).
With B3, a half-maximal response (EC50) required 91 nM and the “Rel EC50” value is 19.8 ratio (head: nM).
In the case of B4, the EC50 was 178 nM and the “Rel EC50” value is 38.7 ratio (head: nM).
Regarding B5, the EC50 is 6.6 nM and the “Rel EC50” value is 1.4 ratio (head: nM).
Regarding B6, a half-maximal response (EC50) required 24.7 nM and the “Rel EC50” value is 5.4 ratio (head: nM).
For the molecule B7, the EC50 came to 32 nM and the “Rel EC50” value is 7 ratio (head: nM).
In the case of B8, the EC50 came to 27.2 nM and the “Rel EC50” value is 5.9 ratio (head: nM).
Taken in the same sequence, the figures for B9 were 17.2 nM and 3.7 ratio (head: nM).
Turning to B10, a half-maximal response (EC50) required 9 nM and the “Rel EC50” value was 2 ratio (head: nM).
Taken in the same sequence, the figures for B11 were 8.9 nM and 1.9 ratio (head: nM).
In the same order, the values of B12 are 10.6 nM and 2.3 ratio (head: nM).
Regarding B13, the response was half-maximal at 8.8 nM (EC50) and the “Rel EC50” value was 1.9 ratio (head: nM).
B14: a half-maximal effect (EC50) was put at 8.6 nM and the “Rel EC50” value was 1.9 ratio (head: nM).
Taken in the same sequence, the figures for B15 were 16.3 nM and 3.5 ratio (head: nM).
For the molecule B16, the EC50 turned out to be 8.1 nM and the “Rel EC50” value was 1.8 ratio (head: nM).
In the same order, the values of B17 are 15.4 nM and 3.4 ratio (head: nM).
On to B18, for which the response was half-maximal at 15.5 nM (EC50) and the “Rel EC50” value was 3.4 ratio (head: nM).
In the same order, the values of B19 are 11.8 nM and 2.6 ratio (head: nM).
In the case of B20, a half-maximal response (EC50) required 13.7 nM and the “Rel EC50” value is 3 ratio (head: nM).
As for B21, the EC50 turned out to be 12.6 nM and the “Rel EC50” value was 2.7 ratio (head: nM).

For another assay, the target named is T1, Recombinant DR3-Fc (R&D Systems, cat. …). Description: ELISA, DR3-Fc immobilized. How it is done: as §1
Plates were washed three times with TBST. 100 μl/well polyclonal rabbit anti-human TL1A-biotin antibody (diluted 1:1000 in Starting Block PBS) was added and plates were incubated for 1 hour at room temperature with shaking at 150 rpm. TL1A-biotin antibody was removed and 100 μl/well streptavidin-HRP conjugate (diluted 1:10,000 in Starting Block PBS) was added to plates. Plates were incubated for 1 hour at room temperature with shaking at 150 rpm. Plates were washed three times with TBST. 100 μl/well POD Chemiluminescence substrate (Roche, cat #: 11582950001) was added immediately prior to reading plate luminescence using a Molecular Devices M5 plate reader with a delay setting of 100 ms.
These combination mutants were tested for binding to DR3 and DcR3 (FIGS. 5E and 5F, respectively).
B6: the EC50 amounted to 29.4 nM and the “Rel EC50” value was determined as 1.1 ratio.
Taken in the same sequence, the figures for B7 were 17.1 nM and 0.7 ratio.
In the same order, the values of B12 are 30.2 nM and 1.2 ratio.
Taken in the same sequence, the figures for B15 were 30 nM and 1.1 ratio.
With B18, the EC50 turned out to be 17.7 nM and the “Rel EC50” value amounted to 0.7 ratio.
On to B22, for which the EC50 is 31.4 nM and the “Rel EC50” value amounted to 1.2 ratio.
Taken in the same sequence, the figures for B21 were 16.6 nM and 0.6 ratio.

Another assay addresses T2, DcR3. The assay is described as follows: ELISA, DcR3. This is another data set of the same source.
Regarding B6, the EC50 worked out at 24.7 nM.
Same read-out and setting: with B7 the figure was 176 nM; with B12, 58.5 nM; with B15, 89.8 nM.
Turning to B18, the EC50 came out at 85.5 nM.
Still for that read-out and setting: with B22 the figure was 21.2 nM.
Same read-out and setting: with B21 the figure was 69.2 nM.

For the next assay, the target named is T1, Recombinant DR3-Fc (R&D Systems, cat. …). The assay is described as follows: ELISA, DR3-Fc immobilized. This is another data set of the same source. Summed up: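 DR3-Fc (10 μg/mL) was coated overnight at 4 °C, blocked with casein, then incubated overnight at 4 °C with TL1A variants from 25 μg/mL in 3-fold dilutions. Bound TL1A was detected with biotinylated rabbit anti-human TL1A and streptavidin-HRP, read by chemiluminescence; triplicates, errors as standard error.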
For the molecule B2, the EC50 was determined as 506 nM and the “Rel EC50” value is 19.3 ratio (head: nM).
Taken in the same sequence, the figures for B3 were 114 nM and 4.4 ratio (head: nM).
In the same order, the values of B4 are 266 nM and 10.1 ratio (head: nM).
For B5, the EC50 was 300 nM and the “Rel EC50” value was 11.5 ratio (head: nM).
Taken in the same sequence, the figures for B6 were 29.5 nM and 1.1 ratio (head: nM).
As for B7, the EC50 was found to be 17.1 nM and the “Rel EC50” value is 0.7 ratio (head: nM).
In the same order, the values of B8 are 144 nM and 5.5 ratio (head: nM).
In the same order, the values of B9 are 105 nM and 4 ratio (head: nM).
As to B10, the EC50 stood at 446 nM and the “Rel EC50” value was 17 ratio (head: nM).
Taken in the same sequence, the figures for B11 were 4620 nM and 176 ratio (head: nM).
Take B12: the EC50 was 30.2 nM and the “Rel EC50” value was 1.2 ratio (head: nM).
In the same order, the values of B13 are 41.7 nM and 1.6 ratio (head: nM).
Taken in the same sequence, the figures for B14 were 26.8 nM and 1 ratio (head: nM).
As for B15, the EC50 is 30 nM and the “Rel EC50” value was 1.1 ratio (head: nM).
Taken in the same sequence, the figures for B16 were 87.5 nM and 3.3 ratio (head: nM).
Taken in the same sequence, the figures for B17 were 110 nM and 4.2 ratio (head: nM).
In the same order, the values of B18 are 17.7 nM and 0.7 ratio (head: nM).
With B19, the EC50 is 336 nM and the “Rel EC50” value was 12.8 ratio (head: nM).
In the same order, the values of B22 are 31.4 nM and 1.2 ratio (head: nM).
In the same order, the values of B20 are 56.8 nM and 2.2 ratio (head: nM).
As for B21, the EC50 was determined as 16.6 nM and the “Rel EC50” value is 0.6 ratio (head: nM).
